Data as given in patent publication US20160089418A1.

Key:
[1] = biological target: human IFN-beta (human) (UniProt P01574); test: cell-based or functional assay
[2] = biological target: recombinant human IFN-alpha (human); test: cell-based or functional assay

Sequence of UniProt P01574 (P01574 22-187 limits assumed): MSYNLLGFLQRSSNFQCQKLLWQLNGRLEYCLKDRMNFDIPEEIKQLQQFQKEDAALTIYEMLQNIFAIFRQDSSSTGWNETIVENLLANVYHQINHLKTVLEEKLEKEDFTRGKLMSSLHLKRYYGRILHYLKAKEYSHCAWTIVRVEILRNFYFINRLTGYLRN

Vaccinia virus B19 IFN-binding protein (full length protein) (from UniProt P25213 20-351)
percent neutralization of IFN at a 1:400 dilution of the medium [1]: > 50%
percent neutralization of IFN at a 1:400 dilution of the medium [2]: > 80%
